Values of other authors, collected in article PMC9499636.

How the values were obtained:
[1] = biological target: Ship2 Sam (Homo sapiens) (UniProt O15357); assay: ITC
[2] = biological target: Ship2 Sam (Homo sapiens) (UniProt O15357); assay: SPR
[3] = biological target: EphA2 Sam (Homo sapiens) (UniProt P29317); assay: ITC
[4] = biological target: EphA2 Sam (Homo sapiens) (UniProt P29317); assay: SPR
[5] = biological target: EphA2-Sam Sam (Homo sapiens) (UniProt P29317); assay: SPR

Sequence of UniProt O15357 (O15357 1193-1258): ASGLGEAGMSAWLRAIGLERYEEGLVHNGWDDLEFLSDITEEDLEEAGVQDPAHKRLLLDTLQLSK

EphA2 Sam (from UniProt P29317)
Kd [1]: 0.75 µM
Kd [2]: 2.2 µM

Odin Sam1 (from UniProt Q92625)
Kd [3]: 0.62 µM
Kd [4]: 5.5 µM

Pep2 (from UniProt Q92625)
Kd [5]: 222 µM

Pep3 (from UniProt Q92625)
Kd [5]: 523 µM
